From paper doi:10.1101/329011v1

Legend:
Settings in all cases: La3+ as metal cofactor; PQQ enzyme; artificial electron acceptor PMS/DCPIP
purified protein = substrate: C=O; experiment: purified protein
[1] = substrate: CCO; experiment: PMS-mediated DCPIP reduction, Michaelis-Menten fit; assay type: biochemical, Methylorubrum extorquens
[2] = substrate: CO; experiment: PMS-mediated DCPIP reduction, Michaelis-Menten fit; assay type: biochemical, Methylorubrum extorquens

B1: XoxF1 MDH (XoxF1-La) (Methylorubrum extorquens AM1) (protein)
chain: NESVLKGVANPAEQVLQTVDYANTRYSKLDQINASNVKNLQVAWTFSTGVLRGHEGSPLVVGNIMYVHTPFPNIVYALDLDQGAKIVWKYEPKQDPSVIPVMCCDTVNRGLAYADGAILLHQADTTLVSLDAKSGKVNWSVKNGDPSKGETNTATVLPVKDKVIVGISGGEFGVQCHVTAYDLKSGKKVWRGYSIGPDDQLIVDPEKTTSLGKPIGKDSSLKTWEGDQWKTGGGCTWGWFSYDPKLDLMYYGSGNPSTWNPKQRPGDNKWSMTIWARNPDTGMAKWVYQMTPHDEWDFDGINEMILTDQKFDGKDRPLLTHFDRNGFGYTLDRATGEVLVAEKFDPVVNWATKVDLDKGSKTYGRPLVVSKYSTEQNGEDVNSKGICPAALGTKDQQPAAFSPKTGLFYVPTNHVCMDYEPFRVTYTPGQPYVGATLSMYPAPGSHGGMGNFIAWDNLQGKIKWSNPEQFSAWGGALATAGDVVFYGTLEGFLKAVDSKTGKELYKFKTPSGIIGNVMTYEHKGKQHVAVLSGVGGWAGIGLAAGLTDPNAGLGAVGGYAALSSYTNLGGQLTVFSLPNN
For B1, the Km (purified protein) was 96 µM, the Km [1] was 639 µM and the Km [2] was 44 µM.
